Publication PMC2481239 (Nature structural & molecular biology, 2008)

T1: Rpn1 (S. cerevisiae, UniProt P38764 1-993)
T1 sequence: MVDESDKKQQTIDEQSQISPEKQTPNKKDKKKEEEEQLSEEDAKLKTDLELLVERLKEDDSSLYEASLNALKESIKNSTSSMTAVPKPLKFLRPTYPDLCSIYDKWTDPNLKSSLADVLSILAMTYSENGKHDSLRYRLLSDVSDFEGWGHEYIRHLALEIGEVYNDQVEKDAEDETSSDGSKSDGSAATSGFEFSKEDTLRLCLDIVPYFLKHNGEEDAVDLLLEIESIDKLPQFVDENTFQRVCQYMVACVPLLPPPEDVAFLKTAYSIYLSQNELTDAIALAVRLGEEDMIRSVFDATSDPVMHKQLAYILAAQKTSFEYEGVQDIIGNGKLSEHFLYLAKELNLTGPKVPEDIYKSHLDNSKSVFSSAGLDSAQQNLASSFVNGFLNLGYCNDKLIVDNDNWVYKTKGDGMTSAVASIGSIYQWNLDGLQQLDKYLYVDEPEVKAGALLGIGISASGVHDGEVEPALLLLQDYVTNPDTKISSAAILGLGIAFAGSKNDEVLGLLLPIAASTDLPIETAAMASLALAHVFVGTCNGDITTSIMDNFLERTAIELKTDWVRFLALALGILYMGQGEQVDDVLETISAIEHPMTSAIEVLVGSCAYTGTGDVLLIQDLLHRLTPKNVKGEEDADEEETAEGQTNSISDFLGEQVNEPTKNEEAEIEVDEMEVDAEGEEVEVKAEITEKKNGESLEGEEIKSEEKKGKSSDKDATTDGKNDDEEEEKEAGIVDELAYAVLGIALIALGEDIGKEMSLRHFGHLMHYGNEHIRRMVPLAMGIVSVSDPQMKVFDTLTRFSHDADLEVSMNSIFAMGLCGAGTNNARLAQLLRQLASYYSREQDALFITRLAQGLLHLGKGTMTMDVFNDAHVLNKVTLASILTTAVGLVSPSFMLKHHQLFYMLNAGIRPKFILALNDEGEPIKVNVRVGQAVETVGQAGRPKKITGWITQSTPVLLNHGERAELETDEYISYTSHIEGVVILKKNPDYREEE


Key:
Rpn1 [1] = biological target: T1, Rpn1; test: cross-linking
Rpn1 [2] = biological target: T1, Rpn1; test: atomic force microscopy
Rpn1-Rpn2 unit = Rpn1-Rpn2 unit (S. cerevisiae, UniProt P38764 1-993; P32565 1-945); test: atomic force microscopy

Row | Binder | binding result (Rpn1 [1]) | stoichiometry N (Rpn1 [2]) | stoichiometry N (Rpn1-Rpn2 unit)
1 | Rpn2 (natural protein) MSLTTAAPLLALLRENQDSVKTYALESINNVVDQLWSEISNELPDIEALYDDDTFSDREMAALIASKVYYNLGEYESAVKYALAAKDRFDIDEKSQFVETIVSKSIEMYVQEASKQYTKDEQFYTKDIIDPKLTSIFERMIEKCLKASELKLALGIALEGYRLDIIESALKSKLDQDSTSENVKIINYLLTLAITTVTNSKFRSSILRKSFDFLMNMPNCDYLTLNKVVVNLNDAGLALQLFKKLKEENDEGLSAQIAFDLVSSASQQLLEILVTELTAQGYDPALLNILSGLPTCDYYNTFLLNNKNIDIGLLNKSKSSLDGKFSLFHTAVSVANGFMHAGTTDNSFIKANLPWLGKAQNWAKFTATASLGVIHKGNLLEGKKVMAPYLPGSRASSRFIKGGSLYGLGLIYAGFGRDTTDYLKNIIVENSGTSGDEDVDVLLHGASLGIGLAAMGSANIEVYEALKEVLYNDSATSGEAAALGMGLCMLGTGKPEAIHDMFTYSQETQHGNITRGLAVGLALINYGRQELADDLITKMLASDESLLRYGGAFTIALAYAGTGNNSAVKRLLHVAVSDSNDDVRRAAVIALGFVLLRDYTTVPRIVQLLSKSHNAHVRCGTAFALGIACAGKGLQSAIDVLDPLTKDPVDFVRQAAMIALSMILIQQTEKLNPQVADINKNFLSVITNKHQEGLAKFGACVAQGIMNAGGRNVTIQLENADTGTLDTKSVVGLVMFSQFWYWFPLAHFLSLSFTPTTVIGIRGSDQAIPKFQMNCYAKEDAFSYPRMYEEASGKEVEKVATAVLSTTARAKARAKKTKKEKGPNEEEKKKEHEEKEKERETNKKGIKETKENDEEFYKNKYSSKPYKVDNMTRILPQQSRYISFIKDDRFVPVRKFKGNNGVVVLRDREPKEPVALIETVRQMKDVNAPLPTPFKVDDNVDFPSA | binds | – | –
2 | Rad23 (natural protein) MVSLTFKNFKKEKVPLDLEPSNTILETKTKLAQSISCEESQIKLIYSGKVLQDSKTVSECGLKDGDQVVFMVSQKKSTKTKVTEPPIAPESATTPGRENSTEASPSTDASAAPAATAPEGSQPQEEQTATTERTESASTPGFVVGTERNETIERIMEMGYQREEVERALRAAFNNPDRAVEYLLMGIPENLRQPEPQQQTAAAAEQPSTAATTAEQPAEDDLFAQAAQGGNASSGALGTTGGATDAAQGGPPGSIGLTVEDLLSLRQVVSGNPEALAPLLENISARYPQLREHIMANPEVFVSMLLEAVGDNMQDVMEGADDMVEGEDIEVTGEAAAAGLGQGEGEGSFQVDYTPEDDQAISRLCELGFERDLVIQVYFACDKNEEAAANILFSDHAD | – | 1 | 1
